Test results taken from paper doi:10.1101/2021.07.07.451367 (bioRxiv, 2021).

Target: T1, mNG::aPKC (C. elegans (endogenous in zygotes), UniProt Q19266 1-597)
T1 sequence (looked up): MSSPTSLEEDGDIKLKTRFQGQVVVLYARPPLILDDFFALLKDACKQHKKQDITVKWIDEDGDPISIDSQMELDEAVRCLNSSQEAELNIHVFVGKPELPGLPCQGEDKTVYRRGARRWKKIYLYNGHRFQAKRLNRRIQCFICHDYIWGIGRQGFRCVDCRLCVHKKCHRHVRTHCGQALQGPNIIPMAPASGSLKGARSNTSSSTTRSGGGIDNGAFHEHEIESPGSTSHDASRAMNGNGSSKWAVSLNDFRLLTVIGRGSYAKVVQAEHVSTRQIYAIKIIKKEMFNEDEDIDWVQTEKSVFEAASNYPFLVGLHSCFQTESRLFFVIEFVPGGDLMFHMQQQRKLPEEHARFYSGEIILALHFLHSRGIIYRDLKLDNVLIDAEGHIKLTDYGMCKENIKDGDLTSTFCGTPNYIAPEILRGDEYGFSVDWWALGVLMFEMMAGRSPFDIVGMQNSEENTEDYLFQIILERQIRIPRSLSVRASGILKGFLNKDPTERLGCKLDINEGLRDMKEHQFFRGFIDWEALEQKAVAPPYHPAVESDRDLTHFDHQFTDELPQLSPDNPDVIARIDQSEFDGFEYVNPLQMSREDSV
Assay: single-cell single-molecule pull-down

B1: PAR-6::HaloTag (natural protein, C. elegans (endogenous in zygotes), UniProt Q9NAN2 1-309, looked up)
chain: MSYNGSYHQNHHSTLQVKSKFDSEWRRFSIPMHSASGVSYDGFRSLVEKLHHLESVQFTLCYNSTGGDLLPITNDDNLRKSFESARPLLRLLIQRRGESWEEKYGYGTDSDKRWKGISSLMAQKPPKRSYSISNPEDFRQVSAIIDVDIVPEAHRRVRLCKHGQERPLGFYIRDGTSVRVTERGVVKVSGIFISRLVDGGLAESTGLLGVNDEVLEVNGIEVLGKTLDQVTDMMVANAHNLIITVKPANQRNTLSRGPSQQGTPNASEMSAATAAATGGIQRPMKMNGSSDGSYHPKQHDANDSDSGED
modifications: HaloTag labelled with HaloTag ligand dye JF646, JFX646 or JFX650
A koff of 0.002 s⁻¹ was found for B1 in this work.
